# Experimental data reported in patent US9144594B2, “Cathepsin L mediated diseases and associated methods and products” (University of Miami, priority 2005, dated 2015).
# Substitutions are numbered along the chain they refer to. Numbers in names are those of the source.
# B1: dynR725A: dynamin mutant (SEQ ID NO.4) with impaired GTP hydrolysis capacity (protein, listed as Homo sapiens)
# chain: MGNRGMEDLIPLVNRLQDAFSAIGQNADLDLPQIAVVGGQSAGKSSVLENFVGRDFLPRGSGIVTRRPLVLQLVNATTEYAEFLHCKGKKFTDFEEVRLEIEAETDRVTGTNKGISPVPINLRVYSPHVLNLTLVDLPGMTKVPVGDQPPDIEFQIRDMLMQFVTKENCLILAVSPANSDLANSDALKVAKEVDPQGQRTIGVITKLDLMDEGTDARDVLENKLLPLRRGYIGVVNRSQKDIDGKKDITAALAAERKFFLSHPSYRHLADRMGTPYLQKVLNQQLTNHIRDTLPGLRNKLQSQLLSIEKEVEEYKNFRPDDPARKTKALLQMVQQFAVDFEKRIEGSGDQIDTYELSGGARINRIFHERFPFELVKMEFDEKELRREISYAIKNIHGIRTGLFTPDMAFETIVKKQVKKIREPCLKCVDMVISELISTVRQCTKKLQQYPRLREEMERIVTTHIREREGRTKEQVMLLIDIELAYMNTNHEDFIGFANAQQRSNQMNKKKTSGNQDEILVIRKGWLTINNIGIMKGGSKEYWFVLTAENLSWYKDDEEKEKKYMLSVDNLKLRDVEKGFMSSKHIFALFNTEQRNVYKDYRQLELACETQEEVDSWKASFLRAGVYPERVGDKEKASETEENGSDSFMHSMDPQLERQVETIRNLVDSYMAIVNKTVRDLMPKTIMHLMINNTKEFIFSELLANLYSCGDQNTLMEESAEQAQRADEMLRMYHALKEALSIIGDINTTTVSTPMPPPVDDSWLQVQSVPAGRRSPTSSPTPQRRAPAVPPARPGSRGPAPGPPPAGSALGGAPPVPSRPGASPDPFGPPPQVPSRPNRAPPGVPSRSGQASPSRPESPRPPFDL
# B2: dynL356Q, G358V: dynamin mutant (SEQ ID NO.3) not recognized by cathepsin L; ELSGGA mutated to EQSVGA (protein, listed as Homo sapiens)
# chain: B1 chain with L356Q, G358V, A725R
# Columns and labels:
# mice = assay: Protein in urine after in vivo gene delivery of dynamin mutants into healthy mice (Bradford); set-up: species or system mouse
# [1] = system: LPS induced mouse proteinuria model; assay: LPS induced mouse proteinuria model, protein in urine (prevention and reversal by dynamin gene delivery); type: in vivo
# [2] = Table 2A, gene delivery into mice, t = 0
# [3] = Table 2A, gene delivery into mice, t = 10 h
# [4] = Table 2A, gene delivery into mice, t = 24 h
# [5] = Table 2B Prevention, 2xLPS, t = 0
# [6] = Table 2B Prevention, 2xLPS, t = 10 h
# [7] = Table 2C Reversal, LPS at 0 and 24 h, t = 0
# [8] = gene delivery immediately before LPS injection
molecule,measurement,setting,value
B1,Protein in the urine,mice; [2],0.26 ± 0.13 mg/mL
same,Protein in the urine,mice; [3],0.58 mg/mL
same,Protein in the urine,"mice; Table 2A, gene delivery into mice, t = 10 h, listed as Dyn R725A",0.58 ± 0.17 mg/mL
same,Protein in the urine,mice; [4],0.20 ± 0.05 mg/mL
same,Protein in the urine,"mice; Table 5 Basic Phenotype, podocin-driven vectors, t = 14 h",0.88 ± 0.21 mg/mL
same,Protein in the urine,[1]; [5],0.17 ± 0.07 mg/mL
same,Protein in the urine,[1]; [6],0.23 ± 0.07 mg/mL
same,Protein in the urine,"[1]; Table 2B Prevention, 2xLPS, t = 24 h",0.20 mg/mL
same,Protein in the urine,"[1]; Table 2B Prevention, 2xLPS, t = 48 h, listed as Dyn R725A",1.25 ± 0.26 mg/mL
same,Protein in the urine,"[1]; Table 2B Prevention, 2xLPS, t = 48 h, listed as R725A",1.25 mg/mL
same,Protein in the urine,[1]; [7],0.28 ± 0.08 mg/mL
same,Protein in the urine,"[1]; Table 2C Reversal, t = 48 h, at gene transfer",1.15 mg/mL
same,Protein in the urine,"[1]; Table 2C Reversal, t = 48 h, at gene transfer, listed as Dyn R725A",1.15 ± 0.15 mg/mL
same,Protein in the urine,"[1]; Table 2C Reversal, t = 58 h, 10 hours after gene transfer",0.38 mg/mL
same,Protein in the urine,"[1]; Table 2C Reversal, t = 58 h, 10 hours after gene transfer, listed as Dyn R725A",0.38 ± 0.20 mg/mL
same,"protection from LPS-induced proteinuria, in words",[1]; [8],completely inhibited development of proteinuria after 24 hours
same,"reversal of established proteinuria, in words","[1]; injected at 48 hours, analyzed 12 hours post injection",almost complete reversal of proteinuria
B2,Protein in the urine,mice; [2],0.22 ± 0.06 mg/mL
same,Protein in the urine,mice; [3],0.33 ± 0.21 mg/mL
same,Protein in the urine,mice; [4],0.40 ± 0.15 mg/mL
same,"proteinuria after gene delivery, in words",mice; healthy mice,did not result in proteinuria
same,Protein in the urine,[1]; [5],0.21 ± 0.05 mg/mL
same,Protein in the urine,[1]; [6],0.26 ± 0.05 mg/mL
same,Protein in the urine,"[1]; Table 2B Prevention, 2xLPS, t = 24 h, listed as Dyn L356Q, G358V",0.47 ± 0.17 mg/mL
same,Protein in the urine,"[1]; Table 2B Prevention, 2xLPS, t = 24 h, listed as L356Q, G358V",0.47 mg/mL
same,Protein in the urine,"[1]; Table 2B Prevention, 2xLPS, t = 48 h",0.65 ± 0.10 mg/mL
same,Protein in the urine,[1]; [7],0.18 ± 0.08 mg/mL
same,Protein in the urine,"[1]; Table 2C Reversal, t = 48 h, at gene transfer, listed as Dyn L356Q, G358V",1.20 ± 0.27 mg/mL
same,Protein in the urine,"[1]; Table 2C Reversal, t = 48 h, at gene transfer, listed as L356Q, G358V",1.20 mg/mL
same,Protein in the urine,"[1]; Table 2C Reversal, t = 58 h, 10 hours after gene transfer, listed as Dyn L356Q, G358V",0.71 ± 0.09 mg/mL
same,Protein in the urine,"[1]; Table 2C Reversal, t = 58 h, 10 hours after gene transfer, listed as L356Q, G358V",0.71 mg/mL
same,reduction of proteinuria,[1]; [8],~50%
same,proteinuria,"[1]; prevention, after the second dose of LPS",0.65 mg/dL
same,reduction of proteinuria,"[1]; reversal, injected at 48 hours, analyzed 12 hours post injection",~50%
